Assay results: patent US6300084A, “Anti-mitotic agent screening process” (The Regents of the University of California, priority 1999, dated 2001)

Key:
[1] = test system: microtubules of wild-type strain DDY898; experiment: Microtubule depolymerization by benomyl in yeast cells, immunofluorescence; assay type: cell-based; details: 20 μg/ml benomyl, two hours at 25° C.
Protocol: Yeast cells were grown to early log phase in minimal or rich medium. For galactose induction, cells were grown to log phase in medium containing either raffinose or glucose. Cells grown on glucose were washed twice with water and then diluted into medium containing galactose/raffinose. Galactose was added directly to medium containing raffinose. Fixation and immunofluorescence procedures were carried out as described by Drubin et al. (1988). The YOL134 anti-tubulin antibody was used at 1:200 and the anti-Duo1p antibody (preparation described below) at 1:2000. Fluorescein-conjugated anti-heavy chain secondary antisera were obtained from Cappel/Organon Teknika (Malvern, Pa.). To determine whether the localization of Duo1p was dependent on microtubules in vivo, microtubules of wild-type strain DDY898 were depolymerized by the addition of 20 μg/ml benomyl. […] With the elimination of microtubules, Duo1p staining also vanished.

[2] = biological target: bovine microtubules (assembled from bovine tubulin, stabilised with taxol) (bovine); experiment: co-sedimentation with microtubules; no increase with more microtubules
[3] = biological target: yeast microtubules (yeast); experiment: as above
[4] = biological target: bovine microtubules (assembled from bovine tubulin, stabilised with taxol) (bovine); experiment: co-sedimentation of in vitro translated Dam1p with taxol-stabilised bovine microtubules; half of Dam1p in the pellet at 5 µM microtubules

Compound: CCCCNC(=O)n1c(NC(=O)OC)nc2ccccc21 [benomyl]
- depolymerization of microtubules (immunofluorescence) [1]: essentially all of the microtubules were depolymerized

Compound: GST-Duo1p fusion protein purified from yeast (pDD475)
- percent of the protein bound to microtubules [2]: 9%
- percent of the protein bound to microtubules [3]: 9%

Compound: in vitro translated Dam1p
- Kd [4]: 5 µM
